± gives the uncertainty stated by the source.
Experiment: self-splicing fitness, log relative to wild type (ln ratio); higher = more splicing; Tetrahymena group I intron in knt gene, E. coli kanamycin selection, DiMSum; sequences stand for … in CUCUCU…GGAGGGAAAAGUUAUCAGGCAUGCACCUGGUAGCUAGUCUUUAAACCAAUAGAUUGCAUCGGUUUAAAAGGCAAGACCGUCAAAUUGCGGGAAAGGGGUCAACAGCCGUUCAGUACCAAGUCUCAGGGGAAACUUUGAGAUGGCCUUGCAAAGGGUAUGGUAAUAAGCUGACGGACAUGGUCCUAACCACGCAGCCAAGUCCUAAGUCAACAGAUCUUCUGUUGAUAUGGAUGCAGUUCACAGACUAAAUGUCGGUCGGGGAAGAUGUAUUCUUCUCAUAAGAUAUAGUCGGACCUCUCCUUAAUGGGAGCUAGCGGAUGAAGUGAUGCAACACUGGAGCCGCUGGGAACUAAUUUGUAUGCGAAAGUAUAUUGAUUAGUUUUGGAGUACUCGUGGUCG
Procedure, shortened: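 The eight P1ex-region nucleotides of an intron in the knt kanamycin-resistance gene on pET-22b(+) were all randomised and the library put into E. coli BL21(DE3). Six replicate transformations were grown overnight at 37°C or 30°C on LB agar with or without 25 μg/mL kanamycin, together with 100 μg/mL carbenicillin, 50 μM IPTG and 0.2% rhamnose. Colonies were pooled and amplicon-sequenced on an Illumina HiSeq 2500. Fitness from DiMSum is the error-weighted combination of wild-type-normalised replicate fold changes, kanamycin over none.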

| Sequence | self-splicing fitness (ln) (30 °C) | self-splicing fitness (ln) (37 °C) |
| --- | --- | --- |
| AAGAAGCAAUAUUACGAGCA | -1.21 ± 0.12 | -0.225 ± 0.1 |
| AAGAAGCAAUAUUACGAGCC | -2.58 ± 0.2 | -2.58 ± 0.29 |
| AAGAAGCAAUAUUACGAUAU | -1.66 ± 0.11 | -0.399 ± 0.12 |
| AAGAAGCAAUAUUACGCAGG | -2.54 ± 0.14 | -1.26 ± 0.14 |
| AAGAAGCAAUAUUACGCAUG | -1.63 ± 0.13 | -0.526 ± 0.13 |
| AAGAAGCAAUAUUACGCGCC | -0.652 ± 0.13 | -0.664 ± 0.2 |
| AAGAAGCAAUAUUACGCUGG | -2.37 ± 0.2 | -0.515 ± 0.2 |
| AAGAAGCAAUAUUACGGAAA | -2.17 ± 0.19 | -1.72 ± 0.2 |
| AAGAAGCAAUAUUACGGACA | -1.66 ± 0.092 | -0.389 ± 0.096 |
| AAGAAGCAAUAUUACGGCGU | 0.0118 ± 0.086 | 0.334 ± 0.11 |
| AAGAAGCAAUAUUACGGGAU | -3.22 ± 0.22 | -1.77 ± 0.18 |
| AAGAAGCAAUAUUACGGGCC | -2.42 ± 0.22 | -1.52 ± 0.21 |
| AAGAAGCAAUAUUACGGGUG | -1.65 ± 0.072 | -1.12 ± 0.086 |
| AAGAAGCAAUAUUACGGUCG | -0.736 ± 0.073 | -0.121 ± 0.1 |
| AAGAAGCAAUAUUACGUAAG | -1.37 ± 0.069 | -0.942 ± 0.083 |
| AAGAAGCAAUAUUACGUGCU | -2.37 ± 0.087 | -1.3 ± 0.082 |
| AAGAAGCAAUAUUACGUGUA | -1.85 ± 0.11 | -1.19 ± 0.092 |
| AAGAAGCAAUAUUACGUUGU | -3.2 ± 0.1 | -2.06 ± 0.11 |
| AAGCAGCAAUAUUACGAAGC | -3.33 ± 0.29 | -1.93 ± 0.27 |
| AAGCAGCAAUAUUACGAGCG | -1.12 ± 0.11 | -0.344 ± 0.14 |
| AAGCAGCAAUAUUACGAGCU | -1.2 ± 0.079 | -0.815 ± 0.083 |
| AAGCAGCAAUAUUACGAUGC | -1.38 ± 0.11 | -0.411 ± 0.13 |
| AAGCAGCAAUAUUACGAUUA | -1.4 ± 0.077 | -0.962 ± 0.066 |
| AAGCAGCAAUAUUACGCCAC | -2.93 ± 0.22 | -2.72 ± 0.29 |
| AAGCAGCAAUAUUACGCCCC | -0.65 ± 0.15 | -0.107 ± 0.19 |
| AAGCAGCAAUAUUACGCCGA | -1.64 ± 0.3 | -1.61 ± 0.26 |

| Sequence | self-splicing fitness (ln) (30 °C) | self-splicing fitness (ln) (37 °C) |
| --- | --- | --- |
| AAGCAGCAAUAUUACGCGAA | -1.77 ± 0.083 | -1.2 ± 0.1 |
| AAGCAGCAAUAUUACGCGAU | -3.31 ± 0.18 | -3.25 ± 0.18 |
| AAGCAGCAAUAUUACGCGGU | -3.08 ± 0.17 | -2.55 ± 0.23 |
| AAGCAGCAAUAUUACGCGUU | -2.2 ± 0.1 | -1.99 ± 0.11 |
| AAGCAGCAAUAUUACGCUCA | 0.661 ± 0.12 | -0.0809 ± 0.2 |
| AAGCAGCAAUAUUACGGAAG | -3.51 ± 0.15 | -1.35 ± 0.14 |
| AAGCAGCAAUAUUACGGAGG | -3.79 ± 0.19 | -2.53 ± 0.21 |
| AAGCAGCAAUAUUACGGAUG | -3.17 ± 0.2 | -2.57 ± 0.2 |
| AAGCAGCAAUAUUACGGCAC | -0.574 ± 0.072 | -0.149 ± 0.098 |
| AAGCAGCAAUAUUACGGCAU | -0.221 ± 0.083 | 0.127 ± 0.1 |
| AAGCAGCAAUAUUACGGCUU | -3.42 ± 0.14 | -0.925 ± 0.12 |
| AAGCAGCAAUAUUACGGGGG | -3.26 ± 0.22 | -1.92 ± 0.16 |
| AAGCAGCAAUAUUACGUAGG | -2.79 ± 0.096 | -1.96 ± 0.13 |
| AAGCAGCAAUAUUACGUAUG | -4.5 ± 0.26 | -2.63 ± 0.17 |
| AAGCAGCAAUAUUACGUGUU | -3.31 ± 0.1 | -1.65 ± 0.089 |
| AAGCAGCAAUAUUACGUUGU | -3.89 ± 0.12 | -2.31 ± 0.11 |
| AAGGAGCAAUAUUACGAACG |  | -0.373 ± 0.27 |
| AAGGAGCAAUAUUACGAUAU | -3.03 ± 0.32 | -2.37 ± 0.45 |
| AAGGAGCAAUAUUACGCAAG | -1.2 ± 0.38 | -1.45 ± 0.49 |
| AAGGAGCAAUAUUACGCAGA |  | -2.56 ± 0.45 |
| AAGGAGCAAUAUUACGCAUU | -2.8 ± 0.15 | -1.64 ± 0.16 |
| AAGGAGCAAUAUUACGCCAG | -2.29 ± 0.26 | -3.1 ± 0.35 |
| AAGGAGCAAUAUUACGGAGU | -3.24 ± 0.22 | -1.33 ± 0.17 |
| AAGGAGCAAUAUUACGGGAG | -4.8 ± 0.39 | -2.24 ± 0.3 |
| AAGGAGCAAUAUUACGGGCA | -1.9 ± 0.23 | -1.2 ± 0.28 |
| AAGGAGCAAUAUUACGGGCC | -2.98 ± 0.37 | -2.27 ± 0.45 |

| Sequence | self-splicing fitness (ln) (30 °C) | self-splicing fitness (ln) (37 °C) |
| --- | --- | --- |
| AAGGAGCAAUAUUACGGGUA | -2.64 ± 0.24 | -2.3 ± 0.46 |
| AAGGAGCAAUAUUACGGGUU | -2.46 ± 0.23 | -2.16 ± 0.28 |
| AAGGAGCAAUAUUACGGUCU | -2.3 ± 0.15 | -0.298 ± 0.12 |
| AAGGAGCAAUAUUACGGUGA | -2.44 ± 0.21 | -1.09 ± 0.2 |
| AAGGAGCAAUAUUACGGUUC | -1.51 ± 0.17 | -2.92 ± 0.35 |
| AAGGAGCAAUAUUACGUAGU |  | -2.03 ± 0.27 |
| AAGGAGCAAUAUUACGUCAG | -3.29 ± 0.41 | -2.28 ± 0.45 |
| AAGGAGCAAUAUUACGUCCU | -2.6 ± 0.25 | -2.27 ± 0.31 |
| AAGGAGCAAUAUUACGUGUC |  | -2.12 ± 0.32 |
| AAGGAGCAAUAUUACGUGUU | -3.55 ± 0.14 | -3.5 ± 0.24 |
| AAGGAGCAAUAUUACGUUGA | -3.47 ± 0.23 | -2.52 ± 0.19 |
| AAGUAGCAAUAUUACGAAAC | -3.53 ± 0.27 | -1.45 ± 0.29 |
| AAGUAGCAAUAUUACGACAC | -0.538 ± 0.19 | -0.726 ± 0.19 |
| AAGUAGCAAUAUUACGACGU | -0.114 ± 0.059 | 0.403 ± 0.078 |
| AAGUAGCAAUAUUACGAGGU | -1.94 ± 0.13 | -1.97 ± 0.17 |
| AAGUAGCAAUAUUACGAUCU | -0.032 ± 0.1 | 0.3 ± 0.13 |
| AAGUAGCAAUAUUACGCAUA | -1.31 ± 0.15 | -0.759 ± 0.15 |
| AAGUAGCAAUAUUACGCCCA | -1.95 ± 0.35 | 0.232 ± 0.38 |
| AAGUAGCAAUAUUACGCCCU | -0.145 ± 0.17 | -0.639 ± 0.19 |
| AAGUAGCAAUAUUACGCCUC | -1.63 ± 0.27 |  |
| AAGUAGCAAUAUUACGCGAC | -3.11 ± 0.31 | -1.7 ± 0.36 |
| AAGUAGCAAUAUUACGCGAU | -3.2 ± 0.16 | -2.19 ± 0.15 |
| AAGUAGCAAUAUUACGCGGC |  | 0.207 ± 0.41 |
| AAGUAGCAAUAUUACGGAGC | -3.21 ± 0.32 | -1.35 ± 0.23 |
| AAGUAGCAAUAUUACGGCGC | -0.0482 ± 0.11 | 0.221 ± 0.14 |
| AAGUAGCAAUAUUACGGGGG | -2.88 ± 0.26 | -3.2 ± 0.35 |

— the supplement of paper PMC7877785
